Like-named read-outs stand apart in the source and are kept apart here.
Columns and labels:
[1] = In vitro fatty acid elongation assay with yeast microsomes, 18:0 acyl-CoA substrate; format: biochemical, Saccharomyces cerevisiae; conditions: for (%) 20:0 acyl CoA / (%) 22:0 acyl CoA / (%) 24:0 acyl CoA / (%) 26:0 acyl CoA / (%) Total / Rate, 20:0 acyl CoA / Rate, 22:0 acyl CoA / Rate, 24:0 acyl CoA / Rate, 26:0 acyl CoA / Rate, Total: second experiment
Description: (§1) Transformed yeast cells were grown in the presence of either glucose or galactose (2% w/v) as described in Example 1. Cells were harvested by centrifugation at 5000×g for 10 min and washed with 10 ml ice cold isolation buffer (IB), which contains 80 mM Hepes-KOH, pH 7.2, 5 mM EGTA, 5 mM EDTA, 10 mM KC1, 320 mM sucrose and 2 mM DTT). Cells were then resuspended in enough IB to fill a 1.7 ml tube containing 700 μl of 0.5 μm glass beads and yeast microsomes were isolated from the cells essentially as described in Tillman, T. and Bell, R., J. Biol. Chem. 261:9144–9149 (1986). The microsomal membrane pellet was recovered by centrifugation at 252,000×g for 60 min. The pellet was rinsed by resuspending in 40 ml fresh IB and again recovered by centrifugation at 252000×g for 60 min. Microsomal pellets were resuspended in a minimal volume of IB, and the protein concentration adjusted to 2.5 μg μl^−1 by addition of IB containing 15% glycerol. Microsomes were frozen on dry ice and stored at −80° C. The protein concentration in microsomes was determined by the Bradford method (Bradford, 1976).
(§2) Fatty acid elongase activity was measured essentially as described in Hlousek-Radojcic, A. et al., Plant J. 8:803–809 (1995). Briefly, the standard elongation reaction mix contained 80 mM Hepes-KOH, pH 7.2, 20 mM MgCl2, 500 μM NADPH, 1 mM ATP, 100 μM malonyl-CoA, 10 μM CoA-SH and 15 μM radioactive acyl-CoA substrate. The radiolabeled substrate was either [1^−14C]18:1-CoA (50 uCi μmol^−1), [1^−14C]18:0-CoA (55 uCi μmol^−1), or [1^−14C]16:0-CoA (54 uCi μmol^−1). The reaction was initiated by the addition of yeast microsomes (5 μg protein) and the mixture incubated at 30° C. for the indicated period of time. The final reaction volume was 25 μl.
(§3) Methyl esters of the acyl-CoA elongation products were prepared as described in Example 1. Methyl esters were separated on reversed phase silica gel KC18 TLC plates (Whatman, […] thick), quantified by phosphorimaging, and analyzed on by ImageQuant software (Molecular Dynamics, Inc., Sunnyvale, Calif.). The detection limit for each product is about 0.001 nanomoles per min. per mg microsomal protein, depending on the phosphorimage exposure time.
(§4) Yeast cultures containing full-length EL1 in λYES and full-length EL2 in pYEUra3 were grown in the presence of galactose or glucose as described in Example 2. Microsomes were then prepared from each of the cultures and fatty acid elongation assays were carried out as described in Example 2.
(§5) In the first experiment, microsomes were prepared from galactose-induced cultures of EL1, EL2 and FAE1, and incubated with either [1-^14C] 18:0 acyl-CoA or [1-^14C] 18:1 acyl-CoA as substrate. The amounts of various reaction products synthesized after 30 minutes (min) were determined as described in Example 2.
In a second experiment, microsomes were prepared from galactose-induced and from glucose-repressed yeast cultures containing EL1 or EL2 coding sequences. The microsomal preparations were incubated with either 18:0 acyl-CoA or 18:1 acyl-CoA as substrate and the fatty acid reaction products determined as described above. […]

[2] = format: biochemical, Saccharomyces cerevisiae; conditions: for (%) 20:1 acyl CoA / (%) 22:1 acyl CoA / (%) 24:1 acyl CoA / (%) 26:1 acyl CoA / (%) Total / Rate, 20:1 acyl CoA / Rate, 22:1 acyl CoA / Rate, 24:1 acyl CoA / Rate, 26:1 acyl CoA / Rate, Total: second experiment
Description: as §1, §2, §3, §4, §5
In a second experiment, microsomes were prepared from galactose-induced and from glucose-repressed yeast cultures containing EL1 or EL2 coding sequences. The microsomal preparations were incubated with either 18:0 acyl-CoA or 18:1 acyl-CoA as substrate and the fatty acid reaction products determined as described above.

[3] = 18:0-CoA substrate, +Galactose (induced)
[4] = 18:0-CoA substrate, +Glucose (uninduced)
[5] = 18:0-CoA substrate, galactose-induced, 30 min, first experiment
[6] = +Gal, standard reaction mix, average of two experiments
[7] = +Glu, standard reaction mix, one experiment
[8] = galactose-induced, −A&C (ATP and Coenzyme A omitted), average of two experiments
[9] = galactose-induced, −ATP, average of two experiments
[10] = galactose-induced, −CoA, average of two experiments
[11] = 18:1-CoA substrate, +Galactose (induced)
[12] = 18:1-CoA substrate, +Glucose (uninduced)
[13] = 18:1-CoA substrate, galactose-induced, 30 min, first experiment

B1: EL2: Arabidopsis β-keto acyl synthase gene product (SEQ ID NO:4) expressed in yeast microsomes (protein, listed as Arabidopsis thaliana)
chain: MDYPMKKVKIFFNYLMAHRFKLCFLPLMVAIAVEASRLSTQDLQNFYLYLQNNHTSLTMFFLYLALGSTLYLMTRPKPVYLVDFSCYLPPSHLKASTQRIMQHVRLVREAGAWKQESDYLMDFCEKILERSGLGQETYVPEGLQTLPLQQNLAVSRIETEEVIIGAVDNLFRNTGISPSDIGILVVNSSTFNPTPSLSSILVNKFKLRDNIKSLNLGGMGCSAGVIAIDAAKSLLQVHRNTYALVVSTENITQNLYMGNNKSMLVTNCLFRIGGAAILLSNRSIDRKRAKYELVHTVRVHTGADDRSYECATQEEDEDGIVGVSLSKNLPMVAARTLKINIATLGPLVLPISEKFHFFVRFVKKKFLNPKLKHYIPDFKLAFEHFCIHAGGRALIDEMEKNLHLTPLDVEASRMTLHRFGNTSSSSIWYELAYTEAKGRMTKGDRIWQIALGSGFKCNSSVWVALRNVKPSTNNPWEQCLHKYPVEIDIDLKE
- (%) 20:0 acyl CoA [1, 3]: 43.1%
- (%) 22:0 acyl CoA [1, 3]: 17.8%
- (%) 24:0 acyl CoA [1, 3]: 19.1%
- (%) 26:0 acyl CoA [1, 3]: 20.0%
- (%) Total [1, 3]: 100.0%
- Rate, 20:0 acyl CoA [1, 3]: 0.107 Nanomoles/minute/mg of microsomal protein
- Rate, 22:0 acyl CoA [1, 3]: 0.044 Nanomoles/minute/mg of microsomal protein
- Rate, 24:0 acyl CoA [1, 3]: 0.048 Nanomoles/minute/mg of microsomal protein
- Rate, 26:0 acyl CoA [1, 3]: 0.050 Nanomoles/minute/mg of microsomal protein
- Rate, Total [1, 3]: 0.249 Nanomoles/minute/mg of microsomal protein
- (%) 20:0 acyl CoA [1, 4]: 81.3%
- (%) 22:0 acyl CoA [1, 4]: 5.1%
- (%) 24:0 acyl CoA [1, 4]: 13.6%
- (%) 26:0 acyl CoA [1, 4]: 0.0%
- (%) Total [1, 4]: 100.0%
- Rate, 20:0 acyl CoA [1, 4]: 0.030 Nanomoles/minute/mg of microsomal protein
- Rate, 22:0 acyl CoA [1, 4]: 0.002 Nanomoles/minute/mg of microsomal protein
- Rate, 24:0 acyl CoA [1, 4]: 0.005 Nanomoles/minute/mg of microsomal protein
- Rate, 26:0 acyl CoA [1, 4]: 0.000 Nanomoles/minute/mg of microsomal protein
- Rate, Total [1, 4]: 0.037 Nanomoles/minute/mg of microsomal protein
- effect of omission of ATP and/or CoA on overall amounts of VLCFAs synthesized ([1]; 18:0-CoA substrate, galactose-induced): does not have a significant effect
- (%) 20:0 acyl-CoA product [1, 5]: 41.8%
- (%) 22:0 acyl-CoA product [1, 5]: 20.7%
- (%) 24:0 acyl-CoA product [1, 5]: 20.3%
- (%) 26:0 acyl-CoA product [1, 5]: 17.2%
- (%) Total acyl-CoA products [1, 5]: 100.0%
- Rate, 20:0 acyl-CoA product [1, 5]: 0.108 Nanomoles/minute/mg of microsomal protein
- Rate, 22:0 acyl-CoA product [1, 5]: 0.053 Nanomoles/minute/mg of microsomal protein
- Rate, 24:0 acyl-CoA product [1, 5]: 0.052 Nanomoles/minute/mg of microsomal protein
- Rate, 26:0 acyl-CoA product [1, 5]: 0.044 Nanomoles/minute/mg of microsomal protein
- Rate, Total acyl-CoA products [1, 5]: 0.258 Nanomoles/minute/mg of microsomal protein
- 20:0 product as a percent of total products formed [1, 6]: 47.1%
- 22:0 product as a percent of total products formed [1, 6]: 19.1%
- 24:0 product as a percent of total products formed [1, 6]: 19.4%
- 26:0 product as a percent of total products formed [1, 6]: 14.5%
- Total products as a percent of total products formed [1, 6]: 100.0%
- 20:0 product as a percent of total products formed [1, 7]: 54.5%
- 22:0 product as a percent of total products formed [1, 7]: 17.1%
- 24:0 product as a percent of total products formed [1, 7]: 5.8%
- 26:0 product as a percent of total products formed [1, 7]: 22.6%
- Total products as a percent of total products formed [1, 7]: 100.0%
- increase in overall elongase activity on induction with galactose, 18:0 acyl CoA substrate ([1]; galactose-induced vs glucose): ~7 fold
- 20:0 product as a percent of total products formed [1, 8]: 38.0%
- 22:0 product as a percent of total products formed [1, 8]: 15.9%
- 24:0 product as a percent of total products formed [1, 8]: 18.4%
- 26:0 product as a percent of total products formed [1, 8]: 27.8%
- Total products as a percent of total products formed [1, 8]: 100.0%
- 20:0 product as a percent of total products formed [1, 9]: 34.1%
- 22:0 product as a percent of total products formed [1, 9]: 16.4%
- 24:0 product as a percent of total products formed [1, 9]: 20.8%
- 26:0 product as a percent of total products formed [1, 9]: 28.9%
- Total products as a percent of total products formed [1, 9]: 100.0%
- 20:0 product as a percent of total products formed [1, 10]: 45.3%
- 22:0 product as a percent of total products formed [1, 10]: 19.2%
- 24:0 product as a percent of total products formed [1, 10]: 19.9%
- 26:0 product as a percent of total products formed [1, 10]: 15.8%
- Total products as a percent of total products formed [1, 10]: 100.0%
- 18:0-CoA elongation activity, +Glu ([1]; microsomes from glucose-grown cultures, standard reaction mix): .033 nanomoles/minute/mg of microsomal protein
- increase in 18:1 CoA elongation, microsomes from induced vs uninduced cells [2]: ~2 fold
- (%) 20:1 acyl CoA [2, 11]: 100.0%
- (%) 22:1 acyl CoA [2, 11]: 0.0%
- (%) 24:1 acyl CoA [2, 11]: 0.0%
- (%) 26:1 acyl CoA [2, 11]: 0.0%
- (%) Total [2, 11]: 100.0%
- Rate, 20:1 acyl CoA [2, 11]: 0.089 Nanomoles/minute/mg of microsomal protein
- Rate, 22:1 acyl CoA [2, 11]: 0.000 Nanomoles/minute/mg of microsomal protein
- Rate, 24:1 acyl CoA [2, 11]: 0.000 Nanomoles/minute/mg of microsomal protein
- Rate, 26:1 acyl CoA [2, 11]: 0.000 Nanomoles/minute/mg of microsomal protein
- Rate, Total [2, 11]: 0.089 Nanomoles/minute/mg of microsomal protein
- (%) 20:1 acyl CoA [2, 12]: 100.0%
- (%) 22:1 acyl CoA [2, 12]: 0.0%
- (%) 24:1 acyl CoA [2, 12]: 0.0%
- (%) 26:1 acyl CoA [2, 12]: 0.0%
- (%) Total [2, 12]: 100.0%
- Rate, 20:1 acyl CoA [2, 12]: 0.043 Nanomoles/minute/mg of microsomal protein
- Rate, 22:1 acyl CoA [2, 12]: 0.000 Nanomoles/minute/mg of microsomal protein
- Rate, 24:1 acyl CoA [2, 12]: 0.000 Nanomoles/minute/mg of microsomal protein
- Rate, 26:1 acyl CoA [2, 12]: 0.000 Nanomoles/minute/mg of microsomal protein
- Rate, Total [2, 12]: 0.043 Nanomoles/minute/mg of microsomal protein
- (%) 20:1 acyl-CoA product [2, 13]: 84.1%
- (%) 22:1 acyl-CoA product [2, 13]: 15.9%
- (%) 24:1 acyl-CoA product [2, 13]: 0.0%
- (%) 26:1 acyl-CoA product [2, 13]: 0.0%
- (%) Total acyl-CoA products [2, 13]: 100.0%
- Rate, 20:1 acyl-CoA product [2, 13]: 0.091 Nanomoles/minute/mg of microsomal protein
- Rate, 22:1 acyl-CoA product [2, 13]: 0.017 Nanomoles/minute/mg of microsomal protein
- Rate, 24:1 acyl-CoA product [2, 13]: 0.0 Nanomoles/minute/mg of microsomal protein
- Rate, 26:1 acyl-CoA product [2, 13]: 0.0 Nanomoles/minute/mg of microsomal protein
- Rate, Total acyl-CoA products [2, 13]: 0.108 Nanomoles/minute/mg of microsomal protein
